The term stoichiometry N denotes a count of units in the complex or per binding partner.

The values that follow come from paper PMC4103857, “Specific Interaction with Cardiolipin Triggers Functional Activation of Dynamin-Related Protein 1” (PLoS ONE, 2014).

Data set [1] deals with Dynamin-Related Protein 1 (Drp1) isoform 2 (human). Put plainly: SEC; gel filtration of the purified untagged isoforms; data not shown.
Data set [2] concerns the molecule itself. The data set is described as above.
Data set [3] concerns the molecule itself. Put plainly: SEC; Drp1 (1 uM) incubated with GTP (1 mM) without liposomes in KCl buffer with 4 mM MgCl2, 30 min, 37 C; Sephadex S200; fractions immunoblotted with anti-Drp1. (In general: In gel filtration, larger molecules generally elute earlier.)

Substitutions are numbered along the chain they refer to. Values joined by “and” are separate entries in the source; they are usually repeats but may differ in a detail not shown here. Equal entries are not always repeated.

For “Dynamin-Related Protein 1 (Drp1) isoform 2 (natural protein)”, in data set [1], the stoichiometry N is 2 and 4.

B1: Dynamin-Related Protein 1 (Drp1) isoform 3 (natural protein, human, UniProt O00429-4 1-699, looked up)
chain: MEALIPVINKLQDVFNTVGADIIQLPQIVVVGTQSSGKSSVLESLVGRDLLPRGTGIVTRRPLILQLVHVSQEDKRKTTGEENGVEAEEWGKFLHTKNKLYTDFDEIRQEIENETERISGNNKGVSPEPIHLKIFSPNVVNLTLVDLPGMTKVPVGDQPKDIELQIRELILRFISNPNSIILAVTAANTDMATSEALKISREVDPDGRRTLAVITKLDLMDAGTDAMDVLMGRVIPVKLGIIGVVNRSQLDINNKKSVTDSIRDEYAFLQKKYPSLANRNGTKYLARTLNRLLMHHIRDCLPELKTRINVLAAQYQSLLNSYGEPVDDKSATLLQLITKFATEYCNTIEGTAKYIETSELCGGARICYIFHETFGRTLESVDPLGGLNTIDILTAIRNATGPRPALFVPEVSFELLVKRQIKRLEEPSLRCVELVHEEMQRIIQHCSNYSTQELLRFPKLHDAIVEVVTCLLRKRLPVTNEMVHNLVAIELAYINTKHPDFADACGLMNNNIEEQRRNRLARELPSAVSRDKVASGGGGVGDGVQEPTTGNWRGMLKTSKAEELLAEEKSKPIPIMPASPQKGHAVNLLDVPVPVARKLSAREQRDCEVIERLIKSYFLIVRKNIQDSVPKAVMHFLVNHVKDTLQSELVGQLYKSSLLDDLLTESEDMAQRRKEAADMLKALQGASQIIAEIRETHLW
notes: ORF amplified by PCR and cloned into pTYB1; numbers count on: isoform 3; also called Variant 3; Isoform-3 WT; source: E. coli Rosetta, purified (chitin resin with thiol-induced cleavage, Q sepharose, Sephadex S200)
B1: in data set [2], the “stoichiometry N” value is 2 and 4.

B2: Drp1 isoform 3 K557-560-569-571A (4KA mutant) (natural protein, human, UniProt O00429-4 1-699, looked up)
chain: B1 chain with K557A, K560A, K569A, K571A
notes: Dynamin-related protein 1 (Drp1), human, splice variant 3 (lacking 37 residues in the B insert), all four B insert lysines replaced by alanine; numbers count on: isoform 3; also called Drp1-4KA; Drp1 4KA mutant; source: E. coli Rosetta, purified (chitin resin with thiol-induced cleavage, Q sepharose, Sephadex S200)
Regarding B2, the binding result in data set [3] is on record as “binds”.
